Experimental data reported in US20240344110A1, “COMPOSITION FOR CELL LYSIS AND NUCLEIC ACID EXTRACTION, NUCLEIC ACID EXTRACTION METHOD USING SAME, AND MOLECULAR DIAGNOSTIC METHOD USING SAME” (INVITROS CO., LTD., priority 2021, published 2024).

Legend:
[1] = tested on: RNase; test: Ct value depending on temperature of first heating step (Experimental Example 3); type: biochemical; details: RNase inhibitor 30 U/rxn, incubation 5 minutes
[2] = tested on: RNase; test: Ct value depending on concentration of RNase inhibitor in first heating step (Experimental Example 2); type: biochemical; details: first heating 37° C. 5 minutes

B1: RNase inhibitor: RNase inhibitor (Nanohelix RNase Inhibitor) derived from murine lung (protein, UniProt Q91VI7 1-456, looked up)
Ribonuclease inhibitor: MSLDIQCEQLSDARWTELLPLIQQYEVVRLDDCGLTEVRCKDISSAVQANPALTELSLRTNELGDGGVGLVLQGLQNPTCKIQKLSLQNCGLTEAGCGILPGMLRSLSTLRELHLNDNPMGDAGLKLLCEGLQDPQCRLEKLQLEYCNLTATSCEPLASVLRVKADFKELVLSNNDLHEPGVRILCQGLKDSACQLESLKLENCGITAANCKDLCDVVASKASLQELDLSSNKLGNAGIAALCPGLLLPSCKLRTLWLWECDITAEGCKDLCRVLRAKQSLKELSLASNELKDEGARLLCESLLEPGCQLESLWIKTCSLTAASCPYFCSVLTKSRSLLELQMSSNPLGDEGVQELCKALSQPDTVLRELWLGDCDVTNSGCSSLANVLLANRSLRELDLSNNCMGGPGVLQLLESLKQPSCTLQQLVLYDIYWTNEVEEQLRALEEERPSLRIIS
- Ct value at first heating temperature of 25° C. to 37° C. [1]: constant
- Ct value at first heating temperature of 45° C. or higher [1]: increased
- Ct value as the concentration of the RNase inhibitor increased ([2]; 7.5 U/rxn to 45 U/rxn): gradually decreased
- Ct value at 52.5 U/rxn ([2]; 52.5 U/rxn): lower than that at a concentration of 7.5 U/rxn
